Measured values reported in patent US20240327522A1 (Genentech, published 2024).
Values belong to the molecule of their own block, whether it stands above or below them.

Key:
[1] = biological target: human αvβ8 endogenously expressed on cells (human); assay: cell-based or functional assay
[2] = biological target: recombinant human αvβ8 protein (PARS-17102) (human); assay: SPR, Biacore T200, anti-murine Fc capture (murine Fc format), human αvβ8 analyte 0-50 nM, 37 C, 1:1 model (FIG. 10)
[3] = biological target: human αvβ8 endogenously expressed on cells (human)
[4] = biological target: recombinant human αvβ8 protein (PARS-17102) (human); assay: SPR, Biacore kinetic screen at 37 °C, 1:1 binding fit; antibody as ligand, hu.aVb8-17102 as sample; in the presence of divalent cations according to
[5] = biological target: T1, recombinant human αvβ8 protein (PARS-17102) (human); assay: SPR, Biacore T200, antibody captured on protein A chip, aVb8 as analyte, 37 C, 1:1 Langmuir model
T1 construct: also called hu.aVb8.17102; not shown: C-terminal acid/basic coils and any purification tags
T1 alpha: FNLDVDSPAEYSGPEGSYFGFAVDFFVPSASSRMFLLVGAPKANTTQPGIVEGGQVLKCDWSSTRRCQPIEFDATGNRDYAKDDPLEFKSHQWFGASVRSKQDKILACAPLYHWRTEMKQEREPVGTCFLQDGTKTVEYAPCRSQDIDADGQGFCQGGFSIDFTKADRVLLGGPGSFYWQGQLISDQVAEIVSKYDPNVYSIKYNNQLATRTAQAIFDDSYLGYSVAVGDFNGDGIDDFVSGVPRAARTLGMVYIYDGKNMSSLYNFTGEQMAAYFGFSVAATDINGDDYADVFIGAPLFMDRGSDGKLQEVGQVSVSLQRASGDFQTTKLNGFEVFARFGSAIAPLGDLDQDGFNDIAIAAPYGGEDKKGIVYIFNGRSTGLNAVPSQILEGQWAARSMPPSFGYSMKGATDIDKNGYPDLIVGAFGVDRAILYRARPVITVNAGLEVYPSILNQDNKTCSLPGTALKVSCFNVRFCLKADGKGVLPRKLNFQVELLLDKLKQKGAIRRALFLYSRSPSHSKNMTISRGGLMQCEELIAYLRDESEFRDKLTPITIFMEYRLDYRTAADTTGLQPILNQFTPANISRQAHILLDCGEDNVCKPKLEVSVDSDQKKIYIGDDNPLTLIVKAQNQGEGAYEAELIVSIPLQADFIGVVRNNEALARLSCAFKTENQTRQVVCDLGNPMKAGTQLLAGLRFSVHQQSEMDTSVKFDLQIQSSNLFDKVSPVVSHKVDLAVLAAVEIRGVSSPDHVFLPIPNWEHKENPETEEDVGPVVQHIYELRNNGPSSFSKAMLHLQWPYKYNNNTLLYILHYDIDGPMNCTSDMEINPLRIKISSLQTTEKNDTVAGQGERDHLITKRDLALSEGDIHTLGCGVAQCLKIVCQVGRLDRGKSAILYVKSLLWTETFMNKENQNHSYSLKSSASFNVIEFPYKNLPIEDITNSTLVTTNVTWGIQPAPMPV
T1 beta: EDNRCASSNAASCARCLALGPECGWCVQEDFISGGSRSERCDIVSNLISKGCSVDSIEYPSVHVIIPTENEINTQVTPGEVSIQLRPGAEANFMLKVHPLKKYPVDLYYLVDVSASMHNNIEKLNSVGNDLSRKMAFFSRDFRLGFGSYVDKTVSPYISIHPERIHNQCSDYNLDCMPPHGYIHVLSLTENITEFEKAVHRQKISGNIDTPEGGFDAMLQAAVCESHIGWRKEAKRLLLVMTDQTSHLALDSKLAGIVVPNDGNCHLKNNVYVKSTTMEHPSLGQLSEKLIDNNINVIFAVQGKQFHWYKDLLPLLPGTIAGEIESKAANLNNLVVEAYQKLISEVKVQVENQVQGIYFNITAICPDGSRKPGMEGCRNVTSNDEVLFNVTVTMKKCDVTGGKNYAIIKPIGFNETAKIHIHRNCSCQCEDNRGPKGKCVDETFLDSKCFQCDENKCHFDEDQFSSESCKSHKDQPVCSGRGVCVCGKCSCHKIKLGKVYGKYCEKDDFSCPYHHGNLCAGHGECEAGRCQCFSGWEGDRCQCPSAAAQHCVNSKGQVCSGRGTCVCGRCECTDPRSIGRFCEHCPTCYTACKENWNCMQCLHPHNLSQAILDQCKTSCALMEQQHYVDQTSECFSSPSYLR
Experimental: (§1) The binding affinity of the antibodies was determined by BIAcore™ T200 machine. For kinetics measurements, antibodies were captured on research grade protein A chip (Cytiva, USA) to achieve approximately 60 RU. Ten-fold serial dilutions of human, murine and cyno aVb8 were injected in the same running buffer as above at 37° C. with a flow rate of 100 μL/min. Association rates (ka) and dissociation rates (kd) were calculated using a 1:1 Langmuir binding model (BIAcore™ T200 Evaluation Software version 2.0). The equilibrium dissociation constant (KD) was calculated as the ratio kd/ka. […]

[6] = biological target: T2, recombinant mouse αvβ8 protein (PARS-17103) (murine, UniProt P43406 31-988; Q0VBD0 43-681, limits assumed); assay: as above
T2 construct: Made in house; also called mu.aVb8.17103
T2 sequence (P43406 31-988 limits assumed, chain 1 of 2): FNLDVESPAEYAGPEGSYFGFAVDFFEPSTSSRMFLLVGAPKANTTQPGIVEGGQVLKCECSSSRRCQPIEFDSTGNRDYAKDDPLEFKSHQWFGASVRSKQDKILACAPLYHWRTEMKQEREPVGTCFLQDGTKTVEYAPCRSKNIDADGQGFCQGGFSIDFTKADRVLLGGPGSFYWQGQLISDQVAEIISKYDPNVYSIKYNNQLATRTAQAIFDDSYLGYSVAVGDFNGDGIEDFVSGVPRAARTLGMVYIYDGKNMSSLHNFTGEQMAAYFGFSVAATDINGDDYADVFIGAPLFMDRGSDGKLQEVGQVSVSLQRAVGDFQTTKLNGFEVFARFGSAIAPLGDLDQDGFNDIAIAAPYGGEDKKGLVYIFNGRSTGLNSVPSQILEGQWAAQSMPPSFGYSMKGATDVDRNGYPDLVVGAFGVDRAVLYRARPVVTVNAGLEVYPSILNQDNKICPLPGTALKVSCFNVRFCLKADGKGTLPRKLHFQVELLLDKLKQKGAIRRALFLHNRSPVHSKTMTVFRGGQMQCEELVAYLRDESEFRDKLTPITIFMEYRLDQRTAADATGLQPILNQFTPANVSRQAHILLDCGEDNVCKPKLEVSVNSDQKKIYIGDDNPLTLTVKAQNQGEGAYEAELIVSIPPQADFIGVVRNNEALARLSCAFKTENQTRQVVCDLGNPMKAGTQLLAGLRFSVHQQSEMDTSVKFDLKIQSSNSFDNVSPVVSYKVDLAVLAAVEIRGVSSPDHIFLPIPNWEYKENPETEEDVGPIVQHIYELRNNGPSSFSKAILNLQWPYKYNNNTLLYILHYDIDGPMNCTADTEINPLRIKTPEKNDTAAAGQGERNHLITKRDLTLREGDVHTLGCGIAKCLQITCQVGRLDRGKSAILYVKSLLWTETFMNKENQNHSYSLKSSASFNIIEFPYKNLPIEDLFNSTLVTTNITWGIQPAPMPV
T2 sequence (Q0VBD0 43-681 limits assumed, chain 2 of 2): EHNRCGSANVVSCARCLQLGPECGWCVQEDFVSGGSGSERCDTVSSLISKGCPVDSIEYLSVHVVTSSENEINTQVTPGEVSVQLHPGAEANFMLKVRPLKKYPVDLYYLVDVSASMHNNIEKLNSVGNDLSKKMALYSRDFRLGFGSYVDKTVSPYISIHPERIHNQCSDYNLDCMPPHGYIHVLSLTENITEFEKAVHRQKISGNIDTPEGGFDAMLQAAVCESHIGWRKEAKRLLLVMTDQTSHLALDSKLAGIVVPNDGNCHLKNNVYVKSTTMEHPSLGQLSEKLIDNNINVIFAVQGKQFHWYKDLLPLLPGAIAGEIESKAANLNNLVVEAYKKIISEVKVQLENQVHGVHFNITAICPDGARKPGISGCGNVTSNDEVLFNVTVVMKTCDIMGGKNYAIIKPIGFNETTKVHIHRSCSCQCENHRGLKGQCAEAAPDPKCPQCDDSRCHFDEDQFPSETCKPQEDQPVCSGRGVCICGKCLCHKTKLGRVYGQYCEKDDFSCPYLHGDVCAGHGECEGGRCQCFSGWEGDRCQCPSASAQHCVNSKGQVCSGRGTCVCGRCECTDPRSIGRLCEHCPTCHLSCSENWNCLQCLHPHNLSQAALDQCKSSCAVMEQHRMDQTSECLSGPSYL
Experimental: as §1

[7] = biological target: T3, cyno.aVb8.13650 (cynomolgus, UniProt A0A2K5WCD3 31-992; G7P0S0 43-684); assay: as above
T3 construct: Carries another lot/construct number than cyno.aVb8-19393; kept apart; also called cynomolgus αvβ8
Experimental: as §1

[8] = biological target: T1, recombinant human αvβ8 protein …; assay: SPR, Biacore kinetic screen at 37 °C, 1:1 binding fit flagged with a warning sign; antibody as ligand, hu.aVb8-17102 as sample; in the presence of divalent cations according to
[9] = biological target: recombinant human αvβ8 protein (PARS-17102) (human); assay: SPR, Biacore T200, anti-murine Fc capture (murine Fc format), human αvβ8 analyte 0-50 nM, 37 C, 1:1 model (FIG. 10); below the instrument's detection limit
[10] = biological target: T1, recombinant human αvβ8 protein …; assay: SPR, Biacore kinetic screen at 37 °C, 1:1 binding fit; antibody as ligand, hu.aVb8-17102 as sample; in the presence of divalent cations according to

IC50 (nM), experiment #1: LN-229 + 3T3-Nano-human GARP/LTGFβ1 (WT) co-culture, NanoLuc reporter [1]: > 333 nM | IC50 (nM), experiment #2: LN-229 + 3T3-Nano-human GARP/LTGFβ1 (WT) co-culture, NanoLuc reporter [1]: > 333 nM | IC50 (nM), experiment #3: LN-229 + 3T3-Nano-human GARP/LTGFβ1 (non-releasable, NR) co-culture, NanoLuc reporter [1]: > 333 nM | IC50 (nM), experiment #4: LN-229 + 3T3-Nano-human GARP/LTGFβ3 (WT) co-culture, NanoLuc reporter [1]: > 333 nM
Molecule: Isotype control (antibody)

IC50 (nM), experiment #1: LN-229 + 3T3-Nano-human GARP/LTGFβ1 (WT) co-culture, NanoLuc reporter [1]: 0.95 nM | IC50 (nM), experiment #2: LN-229 + 3T3-Nano-human GARP/LTGFβ1 (WT) co-culture, NanoLuc reporter [1]: 1.51 nM | IC50 (nM), experiment #3: LN-229 + 3T3-Nano-human GARP/LTGFβ1 (non-releasable, NR) co-culture, NanoLuc reporter [1]: 0.34 nM | IC50 (nM), experiment #4: LN-229 + 3T3-Nano-human GARP/LTGFβ3 (WT) co-culture, NanoLuc reporter [1]: 0.79 nM | Kd [2]: 0.451 nM | koff [2]: 5.33e-05 s⁻¹ | kon [2]: 118000 M⁻¹ s⁻¹
Molecule: ADWA11 mIgG2a.LALAPG (antibody)

IC50 of the TGFb1 reporter signal, co-culture of LN-229 cells with 3T3-Nano GARP/LTGFb1 reporter cells [3]: 2.11 nM | IC50 (nM), experiment #1: LN-229 + 3T3-Nano-human GARP/LTGFβ1 (WT) co-culture, NanoLuc reporter [1]: 0.63 nM | IC50 (nM), experiment #2: LN-229 + 3T3-Nano-human GARP/LTGFβ1 (WT) co-culture, NanoLuc reporter [1]: 1.45 nM | IC50 (nM), experiment #3: LN-229 + 3T3-Nano-human GARP/LTGFβ1 (non-releasable, NR) co-culture, NanoLuc reporter [1]: 0.24 nM | IC50 (nM), experiment #4: LN-229 + 3T3-Nano-human GARP/LTGFβ3 (WT) co-culture, NanoLuc reporter [1]: 0.78 nM | Kd [2]: 1.06 nM | koff [2]: 9.3e-05 s⁻¹ | kon [2]: 87800 M⁻¹ s⁻¹ | Kd [4]: 3.8 nM | koff [4]: 0.000266 s⁻¹ | kon [4]: 69900 M⁻¹ s⁻¹
Molecule: C6D4 mIgG2a.LALAPG (antibody)

Kd [5]: 1.6 nM | koff [5]: 0.000164 s⁻¹ | kon [5]: 102000 M⁻¹ s⁻¹ | Kd [6]: 1.86 nM | koff [6]: 0.000184 s⁻¹ | kon [6]: 98600 M⁻¹ s⁻¹ | Kd [7]: 6.91 nM | koff [7]: 0.000293 s⁻¹ | kon [7]: 42400 M⁻¹ s⁻¹ | Kd [8]: 671 nM | koff [8]: 0.000777 s⁻¹ | kon [8]: 1160 M⁻¹ s⁻¹
B1: Rb.aVb8-92 (antibody, V domains shown)
VH: QSVEESGGRLVTPGTPLTLTCTVSGFSLSSYAMGWVRQAPGKGLEWIGVIRKDDNTYYGNWAKGRFTISRTSTTVDLKMTSLTAADTATYFCARALNTYVGFPYFNIWGPGTLVTVSS
VL: AAVLTQTPSPVSAAVGGTVSISCQSIKSVGDNKWLAWYQQKPGQPPKLLIYDASDLASGVPSRFKGSGSRTQFTLTISDLQCDDAATYYCAGSVSSGDSGFGGGTEVVVA
notes: Recombinant rabbit monoclonal antibody expressed in Expi293 cells; also called rb.αvβ8-92; rabbit αvβ8-92

Kd [2]: < 0.0258 nM | kon [2]: 258000 M⁻¹ s⁻¹ | koff [9]: < 1e-05 s⁻¹
B2: αvβ8-65 in the murine Fc format (antibody, V domains shown)
VH: EVQLLESGGGLVQPGGSLRLSCAASGIDLSNYAMIWVRQAPGKGLEWVGIISSSDRIWYASWVKGRFTISRDNSKNTLYLQMNSLRAEDTAVYYCSRSVSNSYFDGWNLWGQGTLVTVSS
VL: DIQMTQSPSSVSASVGDRVTITCQASENINSLLAWYQQKPGKAPKLLIYRASTLASGVPSRFSGSGSGTDFTLTISSLQPEDFATYYCQSNYGFTGSGAFFYGFGQGTKVEIK

Kd [5]: 0.7 nM | koff [5]: 0.000131 s⁻¹ | kon [5]: 187000 M⁻¹ s⁻¹ | Kd [6]: 0.9 nM | koff [6]: 0.000132 s⁻¹ | kon [6]: 146000 M⁻¹ s⁻¹ | Kd [7]: 1.94 nM | koff [7]: 0.000121 s⁻¹ | kon [7]: 62400 M⁻¹ s⁻¹ | Kd [10]: 1.54 nM | koff [10]: 0.000349 s⁻¹ | kon [10]: 227000 M⁻¹ s⁻¹
B3: Rb.aVb8-65 (antibody, V domains shown)
VH: QSVEESGGRLVTPGTPLTLTCTVSGIDLSNYAMIWVRQAPGKGLEWIGIISSSDRIWYASWVKGRFTISKTSSTTVDLQMTSLTTEDTATYFCSRSVSNSYFDGWNLWGPGTLVTVSS
VL: DIVMTQTPASVEAAVGGTVTIKCQASENINSLLAWYQQKPGQPPKLLIYRASTLASGVPSRFRGSGSGTQFTLTISDLECDDAATYYCQSNYGFTGSGAFFYGFGGGTEVVVE
notes: Recombinant rabbit monoclonal antibody expressed in Expi293 cells; also called rb.αvβ8-65; rabbit αvβ8-65
